Reference: PMC6041754 (Journal of Molecular Cell Biology, 2017)
Numbering of substitutions follows the chain as printed. Numbers in names are those of the source. Each block holds one binder with its values, some of them ahead of it.

Experiments:
Ran^Δ181–216 = Ran^Δ181–216 (human, UniProt P62826 1-180); assay: NMR
[1] = target: Ran (full-length, His6-tagged, from pET22b) (human, UniProt P62826 1-216); assay: SPR

binding result (Ran^Δ181–216): binds
B1: Mog1 without a tag (co-expressed with Ran from pRSFDuet-1) (natural protein)
chain: MEPTRDCPLFGGAFSAILPMGAIDVSDLRPVPDNQEVFCHPVTDQSLIVELLELQAHVRGEAAARYHFEDVGGVQGARAVHVESVQPLSLENLALRGRCQEAWVLSGKQQIAKENQQVAKDVTLHQALLRLPQYQTDLLLTFNQPPPDNRSSLGPENLSPAPWSLGDFEQLVTSLTLHDPNIFGPQ
modifications: isotope labels (2H, 15N, ILV methyl 13CH3) as the sample required

fold reduction of binding affinity against wild-type Mog1 [1]: ~100 fold
B2: Mog1^E50K,E53K (natural protein)
chain: B1 chain with E50K, E53K
